Ends that are not written are not given here. * marks the point of attachment. IAANS = 2-(4'-(iodoacetamido)anilino)naphthalene-6-sulfonic acid label, O=C(C*)Nc1ccc(Nc2ccc3cc(S(=O)(=O)O)ccc3c2)cc1; HiLyte Fluor 488 maleimide = HiLyte Fluor 488-maleimide (Anaspec) label
Assays:
Settings in all cases: both partners purified
[1] = molecular target: T1, wild-type DnaK (Escherichia coli, UniProt P0A6Y8 1-638); test: MST; 100 nM HiLyte Fluor 488-labelled peptide with 0.6 nM-10 μM DnaK, HKM buffer (25 mM HEPES/KOH pH 7.6, 50 mM KCl, 5 mM MgCl2) with 0.1% Tween-20, incubated at least 30 min, 30 °C, Monolith NT.115
T1 construct: DnaK, the Hsp70 of Escherichia coli; also called DnaKwt; Wt; source: E. coli ΔdnaK52 cells (BB1553), purified (Ni-IDA, Resource Q), nucleotides removed

[2] = molecular target: T2, DnaK-L484A (Escherichia coli, UniProt P0A6Y8 1-638, L484A); test: as above
T2 construct: DnaK, the Hsp70 of Escherichia coli, Leu484 replaced by alanine; source: E. coli ΔdnaK52 cells (BB1553), purified (Ni-IDA, Resource Q), nucleotides removed

[3] = molecular target: T3, DnaK-V440A (Escherichia coli, UniProt P0A6Y8 1-638, V440A); test: as above
T3 construct: DnaK, the Hsp70 of Escherichia coli, Val440 replaced by alanine; source: E. coli ΔdnaK52 cells (BB1553), purified (Ni-IDA, Resource Q), nucleotides removed

[4] = molecular target: T4, DnaK-D148A (Escherichia coli, UniProt P0A6Y8 1-638, D148A); test: as above
T4 construct: DnaK, the Hsp70 of Escherichia coli, Asp148 replaced by alanine; source: E. coli ΔdnaK52 cells (BB1553), purified (Ni-IDA, Resource Q), nucleotides removed

[5] = molecular target: T5, DnaK-Y145F (Escherichia coli, UniProt P0A6Y8 1-638, Y145F); test: fluorescence dissociation kinetics (chase with unlabelled peptide); no nucleotide; 0.5 μM DnaK and 0.5 μM IAANS-labelled peptide pre-incubated at least 30 min, then mixed with 50-fold excess of unlabelled peptide; HKM buffer, 30 °C; Perkin Elmer LS55
T5 construct: DnaK, the Hsp70 of Escherichia coli, Tyr145 replaced by phenylalanine; source: E. coli ΔdnaK52 cells (BB1553), purified (Ni-IDA, Resource Q), nucleotides removed

[6] = molecular target: T1, wild-type DnaK; test: as above
[7] = molecular target: T6, DnaK-Y145A (Escherichia coli, UniProt P0A6Y8 1-638, Y145A); test: as above
T6 construct: DnaK, the Hsp70 of Escherichia coli, Tyr145 replaced by alanine; source: E. coli ΔdnaK52 cells (BB1553), purified (Ni-IDA, Resource Q), nucleotides removed

[8] = molecular target: T7, DnaK-F146A (Escherichia coli, UniProt P0A6Y8 1-638, F146A); test: as above
T7 construct: DnaK, the Hsp70 of Escherichia coli, Phe146 replaced by alanine; source: E. coli ΔdnaK52 cells (BB1553), purified (Ni-IDA, Resource Q), nucleotides removed

[9] = molecular target: T8, DnaK-Y145H (Escherichia coli, UniProt P0A6Y8 1-638, Y145H); test: as above
T8 construct: DnaK, the Hsp70 of Escherichia coli, Tyr145 replaced by histidine; source: E. coli ΔdnaK52 cells (BB1553), purified (Ni-IDA, Resource Q), nucleotides removed

[10] = molecular target: T4, DnaK-D148A; test: as above
[11] = molecular target: T9, DnaK-D481K (Escherichia coli, UniProt P0A6Y8 1-638, D481K); test: fluorescence dissociation kinetics (chase with unlabelled peptide); in the presence of ATP; 0.5 μM DnaK and 0.5 μM IAANS-labelled peptide pre-incubated at least 30 min, then mixed with 50-fold excess of unlabelled peptide; HKM buffer, 30 °C; stopped flow
T9 construct: DnaK, the Hsp70 of Escherichia coli, Asp481 replaced by lysine; source: E. coli ΔdnaK52 cells (BB1553), purified (Ni-IDA, Resource Q), nucleotides removed

[12] = molecular target: T2, DnaK-L484A; test: as above
[13] = molecular target: T10, DnaK-D481A (Escherichia coli, UniProt P0A6Y8 1-638, D481A); test: as above
T10 construct: DnaK, the Hsp70 of Escherichia coli, Asp481 replaced by alanine; source: E. coli ΔdnaK52 cells (BB1553), purified (Ni-IDA, Resource Q), nucleotides removed

[14] = molecular target: T3, DnaK-V440A; test: as above

Measured: binding result

B1: HiLyte Fluor 488-labelled σ32-Q132-Q144-C (peptide)
peptide: QRKLFFNLRKTKQC(HiLyte Fluor 488 maleimide)
notes: residues Q132-Q144 of σ32, the E. coli heat shock transcription factor; cysteine added at the C-terminus of the peptide (the '-C' of its name); also called fluorescently labelled peptide derived from σ32
binds: [1] | [2] | [3] | [4]

B2: IAANS-labelled peptide σ32-Q132-Q144-C (peptide)
peptide: QRKLFFNLRKTKQC(IAANS)
notes: residues Q132-Q144 of σ32, the E. coli heat shock transcription factor; cysteine added at the C-terminus of the peptide (the '-C' of its name); also called 2-(4'-(iodoacetamido)anilino)naphthalene-6-sulfonic acid labelled σ32-Q132-Q144-C; substrate
not listed: [1] | [2] | [3] | [4]
binds: all other assays above
